Measurements taken from the supplement of paper PMC7125110.
± gives the standard error. Variants at the floor of the assay were thinned out.

B1: glmS ribozyme (parent)
chain: AUAAAAGCGCCAGAACUACAGAAAUGUAGUUGACGAGGAGGAGGUUUAUCGAAUUUUCGGCGGAUGCCUCCAAA

Columns and labels:
Conditions in all cases: with glucosamine-6-phosphate
[1] = variants of: B1; experiment: self-cleavage kobs at 160 uM GlcN6P; higher = faster cleavage; RNA array
How it was run: (§1)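 Barcoded ribozyme variants, transcribed in situ by E. coli RNA polymerase on sequenced MiSeq chips, were followed via a hybridised Cy3 probe at 37 °C. Glucosamine-6-phosphate ranged from 40 μM to 10 mM in HEPES/KCl/Mg(OAc)2 buffer. kobs came from decay fits to per-tile medians, and kcat and KM from weighted Michaelis–Menten fits.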

[2] = variants of: B1; experiment: self-cleavage kobs at 640 uM GlcN6P; higher = faster cleavage; RNA array
How it was run: as §1

[3] = variants of: B1; experiment: self-cleavage kobs at 2500 uM GlcN6P; higher = faster cleavage; RNA array
How it was run: as §1

[4] = variants of: B1; experiment: self-cleavage kobs at 10000 uM GlcN6P; higher = faster cleavage; RNA array
How it was run: as §1

| Variant | self-cleavage kobs at 160 uM GlcN6P [1] | self-cleavage kobs at 640 uM GlcN6P [2] | self-cleavage kobs at 2500 uM GlcN6P [3] | self-cleavage kobs at 10000 uM GlcN6P [4] |
| --- | --- | --- | --- | --- |
| G62A G63U C67U | < 1e-05 s⁻¹ | < 1e-05 s⁻¹ |  |  |
| A6C G38U G40A A48G A52U G63C |  | < 1e-05 s⁻¹ | < 1e-05 s⁻¹ |  |
| A6G U31G A53G |  | 4.09e-05 ± 1.9e-05 s⁻¹ | 0.000162 ± 3.5e-05 s⁻¹ |  |
| G43A G60U | < 1e-05 s⁻¹ | < 1e-05 s⁻¹ |  | < 1e-05 s⁻¹ |
| A6U G13U G29U C70G |  | 4.98e-05 ± 2.3e-05 s⁻¹ |  |  |
| A6U G7A G59A |  | < 1e-05 s⁻¹ |  |  |
| A42U U56G C61U | < 1e-05 s⁻¹ |  |  |  |
| A53C U54G | 0.000308 ± 0.00011 s⁻¹ | 0.000352 ± 0.00012 s⁻¹ | 0.000803 ± 0.00021 s⁻¹ |  |
| A6G A12U U56A C71U |  | 8.01e-05 ± 2.1e-05 s⁻¹ | 9.57e-05 ± 2.8e-05 s⁻¹ |  |
| G43U U49A A52U | < 1e-05 s⁻¹ | < 1e-05 s⁻¹ | < 1e-05 s⁻¹ |  |
| A6U G35A C70U |  | < 1e-05 s⁻¹ |  |  |
| C50A G63A | < 1e-05 s⁻¹ |  |  | < 1e-05 s⁻¹ |
| A53U G62U A64U | < 1e-05 s⁻¹ | < 1e-05 s⁻¹ | < 1e-05 s⁻¹ |  |
| C50U C61A | 9.85e-05 ± 4.8e-05 s⁻¹ | 2.67e-05 ± 1.1e-05 s⁻¹ | 3.11e-05 ± 1e-05 s⁻¹ |  |
| A6G G43U U69G |  | < 1e-05 s⁻¹ |  |  |
| G41A G59U C71U | < 1e-05 s⁻¹ | < 1e-05 s⁻¹ | < 1e-05 s⁻¹ |  |
| C58A G60U C61U C71A | < 1e-05 s⁻¹ |  | < 1e-05 s⁻¹ |  |
| U55G U56G U69C | 0.000134 ± 3.4e-05 s⁻¹ | 0.000115 ± 2.6e-05 s⁻¹ | 0.000201 ± 4.3e-05 s⁻¹ |  |
| G41U C50U | < 1e-05 s⁻¹ | < 1e-05 s⁻¹ | < 1e-05 s⁻¹ | < 1e-05 s⁻¹ |

| Variant | self-cleavage kobs at 160 uM GlcN6P [1] | self-cleavage kobs at 640 uM GlcN6P [2] | self-cleavage kobs at 2500 uM GlcN6P [3] | self-cleavage kobs at 10000 uM GlcN6P [4] |
| --- | --- | --- | --- | --- |
| A6U A14G G60C |  | < 1e-05 s⁻¹ |  |  |
| A6U C16U U47A |  | 6.84e-05 ± 2.1e-05 s⁻¹ | 0.000103 ± 3.5e-05 s⁻¹ |  |
| U57C G62C | < 1e-05 s⁻¹ | < 1e-05 s⁻¹ | < 1e-05 s⁻¹ | < 1e-05 s⁻¹ |
| A42G C61A C67A | 0.000467 ± 0.00018 s⁻¹ |  |  |  |
| G43C C61A | < 1e-05 s⁻¹ | < 1e-05 s⁻¹ | < 1e-05 s⁻¹ | < 1e-05 s⁻¹ |
| U56A G60U | < 1e-05 s⁻¹ |  |  |  |
| A6G G51U U56A C71U |  | < 1e-05 s⁻¹ |  | < 1e-05 s⁻¹ |
| U57G C58A G63U | < 1e-05 s⁻¹ |  |  |  |
| A6C C10A A15G C16G G63A |  | < 1e-05 s⁻¹ | < 1e-05 s⁻¹ | < 1e-05 s⁻¹ |
| A6C C10G G41U |  | < 1e-05 s⁻¹ | < 1e-05 s⁻¹ |  |
| A6U C70A |  | 0.000142 ± 6.1e-05 s⁻¹ | 2.49e-05 ± 9.6e-06 s⁻¹ |  |
| U46G U57G | < 1e-05 s⁻¹ | < 1e-05 s⁻¹ |  |  |
| U54G U56A | 0.000806 ± 0.00016 s⁻¹ | 0.00244 ± 0.00071 s⁻¹ | 0.012 ± 0.0054 s⁻¹ | 0.0311 ± 0.013 s⁻¹ |
| G59C G63U C71A | < 1e-05 s⁻¹ |  |  |  |
| U47G C50U G63C | < 1e-05 s⁻¹ | < 1e-05 s⁻¹ |  |  |
| U45G G66A | 0.0029 ± 0.00042 s⁻¹ | 0.00605 ± 0.0014 s⁻¹ | 0.0257 ± 0.0093 s⁻¹ |  |
| U55C G59C | < 1e-05 s⁻¹ | < 1e-05 s⁻¹ |  |  |
| A42U A52C A53G | < 1e-05 s⁻¹ |  |  |  |
| A6U C8A C50U |  | < 1e-05 s⁻¹ |  |  |

| Variant | self-cleavage kobs at 160 uM GlcN6P [1] | self-cleavage kobs at 640 uM GlcN6P [2] | self-cleavage kobs at 2500 uM GlcN6P [3] | self-cleavage kobs at 10000 uM GlcN6P [4] |
| --- | --- | --- | --- | --- |
| A6G C16G U57C |  | < 1e-05 s⁻¹ |  |  |
| G43C U49G | < 1e-05 s⁻¹ | < 1e-05 s⁻¹ | < 1e-05 s⁻¹ | < 1e-05 s⁻¹ |
| A6C G43C C71U |  | < 1e-05 s⁻¹ |  |  |
| U46C U54A | 0.000326 ± 8.6e-05 s⁻¹ | 0.00148 ± 0.00038 s⁻¹ |  |  |
| C50A U54G C67G | 0.000319 ± 0.00012 s⁻¹ | 0.000125 ± 4.8e-05 s⁻¹ | 0.000101 ± 4.6e-05 s⁻¹ |  |
| U54C U55A | 0.00144 ± 0.00036 s⁻¹ | 0.00609 ± 0.0028 s⁻¹ | 0.00974 ± 0.0036 s⁻¹ |  |
| C50G C67G | 7.32e-05 ± 1.3e-05 s⁻¹ | 5e-05 ± 7.7e-06 s⁻¹ |  |  |
| C50G G59U C70U | 4.6e-05 ± 2.1e-05 s⁻¹ | 9.86e-05 ± 2.5e-05 s⁻¹ | 8.37e-05 ± 3.5e-05 s⁻¹ |  |
| A6C U55G U65G C67U |  | < 1e-05 s⁻¹ |  |  |
| U46G A64U | < 1e-05 s⁻¹ |  |  |  |
| A6G G37C G43A U46C |  | < 1e-05 s⁻¹ |  |  |
| A6G A33G U47A |  | < 1e-05 s⁻¹ |  |  |
| A42G U54A C67A | 0.000942 ± 0.00031 s⁻¹ | 0.0023 ± 0.001 s⁻¹ | 0.00449 ± 0.0011 s⁻¹ |  |
| A53G G63U | < 1e-05 s⁻¹ | < 1e-05 s⁻¹ | < 1e-05 s⁻¹ |  |
| A39U U47G A52U G60U G63U | < 1e-05 s⁻¹ |  |  |  |
| A42G U46G C67U | 0.000274 ± 8.3e-05 s⁻¹ |  | 0.00148 ± 0.00058 s⁻¹ |  |
| G51U U56C C70G | < 1e-05 s⁻¹ |  |  | < 1e-05 s⁻¹ |
| C58G U69C | 6.56e-05 ± 2e-05 s⁻¹ | 0.000102 ± 3.1e-05 s⁻¹ | 0.00011 ± 3.2e-05 s⁻¹ |  |
| U2C U31C |  | 0.000805 ± 0.00025 s⁻¹ |  |  |
